# Assay results as given in patent US11866736B2, “Protein prostheses for mitochondrial diseases or conditions” (The General Hospital Corporation, priority 2015, dated 2024).
# Experiments:
# [1] = Continuous assay of H2O2 production (Amplex Red/HRP/SOD); type: biochemical
# Protocol: Reaction mixture contained: 50 mM NaPi pH 7.5, 150 mM NaCl buffer, 350 μM NADH, SOD 130U and 100 μM D-glucose at 37° C. At times indicated LbNOX and glucose oxidase were added. Glucose oxidase was used to validate the assay, since this enzyme produces H2O2 from oxygen and D-glucose. Rates on H2O2-forming activity of LbNOX were compared to rates of NADH disappearance in parallel experiments. It was estimated that around 1.7±0.3% of H2O2 is produced by LbNOX (n=4).
# H2O2 production was monitored in a continuous assay followed by the increase in absorbance at 570 nm upon resorufin formation (ε570=54 mM^−1 cm^−1). It was shown previously that presence of NADH in the assay mixture results in the oxidation of AMPLEX® Red dye in the HRP-dependent manner and this process is greatly diminished by supplementation of superoxide dismutase (SOD) (Votyakova, et al., Arch. Biochem. Biophys., 431:138, 2004). […] The reaction was preincubated at 37° C. for 3 min before LbNOX was added (0.15 μg) and subsequently after LbNOX-dependent rate of H2O2 production was recorded, 4 U of glucose oxidase (Sigma, G2133-10 KU) was added (FIG. 6). […] H2O2-forming activity of LbNOX was compared to the total NADH oxidase activity which was determined in a parallel experiment when the decrease of NADH absorbance at 340 nm was monitored under identical conditions.
# HeLa Tet3G cells = experiment: Total NAD+/NADH ratio by HPLC; type: cell-based, human; conditions: doxycycline-inducible expression
# Protocol: One million HeLa Tet3G Luciferase, LbNOX or mitoLbNOX cells were seeded per a 10 cm plate in 10 ml of DMEM (DMEM (US Biological, D9800), 3.7 g/L NaHCO3, 10% dialyzed FBS (Life Technologies, 26400-044)). Twenty four hours and 1 hour before extraction, media was exchanged to 10 ml of DMEM without pyruvate (DMEM (US Biological, D9802), 15.9 mg/L phenol red, 3.7 g/L NaHCO3, 10% dialyzed FBS (Life Technologies, 26400-044)) with or without 300 ng/ml doxycycline. The media that was used 1 hour before extraction was preincubated overnight in tissue culture incubator without cells. Media was quickly aspirated, cells rinsed with 15 ml of ice-cold PBS, transferred to dry ice and 4 ml of dry ice cold solution of 80% methanol: 20% water (spiked with 5 μM Sodium L-Lactate-3,3,3-D3 and 0.2 μM Sodium [3-^13C]Pyruvate) was added and quickly spread around by tilting the plate. The whole procedure from aspiration of media to adding 80% methanol solution took about ˜15 seconds. The plate was transferred on dry ice to −80° C. freezer and incubated for 15 min. […]
# Metabolites were analyzed by ion exchange chromatography using μBondapak NH2 300×3.9-mm column (Waters, WAT084040) attached to Agilent 1260 HPLC system. […] Absorbance was monitored at […] for NADH. […] Energy charge calculated ([ATP]+0.5 [ADP])/([ATP]+[ADP]+[AMP]) was usually ˜0.95.
molecule,measurement,setting,value
"LbNOX: water-forming NADH oxidase endogenous to Lactobacillus brevis; tested with C-terminal FLAG tag (protein, listed as Lactobacillus brevis, C-terminal FLAG tag) KVTVVGCTHAGTFAIKQILAEHPDAEVTVYERNDVISFLSCGIALYLGGKVADPQGLFYSSPEELQKLGANVQMNHNVLAIDPDQKTVTVEDLTNHAQTTESYDKLVMTSGSWPIVPKIPGIDSDRVKLCKNWAHAQALIEDAKEAKRITVIGAGYIGAELAEAYSTTGHDVTLIDAMARVMPKYFDADFTDVIEQDYRDHGVQLALGETVESFTDSATGLTIKTDKNSYETDLAILCIGFRPNTDLLKGKVDMAPNGAIITDDYMRSSNPDIFAAGDSAAVHYNPTHQNAYIPLATNAVRQGILVGKNLVKPTVKYMGTQSSSGLALYDRTIVSTGLTLAAAKQQGLNAEQVIVEDNYRPEFMPSTEPVLMSLVFDPDTHRILGGALMSKYDVSQSANTLSVCIQNENTIDDLAMVDMLFQPNFDRPFNYLNILAQAAQAKVAQSVNA",H2O2 relative to H2O production during catalytic cycle,[1],1-2 % by mole
same,H2O2 produced (H2O2-forming rate compared to rate of NADH disappearance),"[1]; 350 μM NADH, 37° C., n=4",around 1.7±0.3%
same,effect on total NAD+/NADH ratio,HeLa Tet3G cells,did not have a significant effect
